Patent US20040009568A1, “Catalytic domains of the human hepatocyte growth factor receptor tyrosine kinase, and materials and methods for identification of inhibitors thereof” (priority 2001, published 2004)

Target: T1, phosphorylated HGFR (pHGFR) (Homo sapiens, UniProt P08581)
T1 construct: The cDNA corresponding to residues 1051-1349 of the HGFR kinase catalytic domain (HGFRkd) was cloned into a pFastBac plasmid; added N-terminal methionine (start codon of the NcoI site) (N); made in house; host or cells: Sf9 insect cells, recombinant baculovirus; then autophosphorylated in vitro with MgATP
T1 sequence (P08581 1051-1349): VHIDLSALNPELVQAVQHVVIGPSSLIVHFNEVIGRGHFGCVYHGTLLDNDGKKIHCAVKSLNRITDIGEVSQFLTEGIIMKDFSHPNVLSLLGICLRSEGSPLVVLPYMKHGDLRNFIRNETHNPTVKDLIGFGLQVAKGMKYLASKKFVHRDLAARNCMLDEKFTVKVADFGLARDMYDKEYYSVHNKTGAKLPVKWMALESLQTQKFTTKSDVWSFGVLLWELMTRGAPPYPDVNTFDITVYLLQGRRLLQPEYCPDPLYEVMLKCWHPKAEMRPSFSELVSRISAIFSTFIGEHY
Experiment: Coupled enzymatic (PK/LDH) kinase assay, phospho-HGFR
Format: biochemical
Conditions: coupled, enzymatic format; phosphorylation state of HGFR not stated; read-out: Km, Dephosphorylated α-casein
Procedure: A coupled enzymatic assay format was used to measure both HGFR and phospho-HGFR(PHGFR) activities. The kinase-catalyzed production of ADP from ATP that accompanies phosphate transfer to the random copolymer poly(Glu4Tyr) or peptide substrate was coupled to the oxidation of NADH through the activities of pyruvate kinase (PK) and lactate dehydrogenase (LDH). NADH conversion to NAD^+ was monitored by the decrease in absorbance at 340 nm (ε=6.22 cm^−1 mM^−1) using a Beckman DU650 spectrophotometer. A typical reaction solution contained 1 mM phosphoenolpyruvate, 0.24 mM NADH, 40 mM MgCl2, 5 mM DTT, poly(Glu4Tyr), ATP, 15 units/mL PK, 15 units/mL LDH in 100 mM HEPES, pH 7.5. […]
The kinetic consequences of the autophosphorylation were investigated. HGFR and pHGFR activities were evaluated in two distinct and complementing assay formats. […] NADH conversion to NAD^+ was monitored spectrophotometrically by the decrease in absorbance at 340 nm (ε=6.22 cm^−1 mM^−1). […]
Inhibition of HGFR and pHGFR were monitored in two distinct assay formats to insure valid results. The coupled, enzymatic format (CE) was a continuous assay that measured ADP production through the sequential action of two standard coupling enzymes (pyruvate kinase and lactate dehydrogenase). The radioactive assay format was a discontinuous assay that measured phospho-protein production directly. […]

B1: Dephosphorylated α-casein: phosphoacceptor protein substrate for HGFR (protein)
chain: RPKHPIKHQGLPQEVLNENLLRFFVAPFPEVFGKEKVNELSKDIGSESTEDQAMEDIKQMEAESISSSEEIVPNSVEQKHIQKEDVPSERYLGYLEQLLRLKKYKVPQLEIVPNSAEERLHSMKEGIHAQQKEPMIGVNQELAYFYPELFRQFYQLDAYPSGAWYYVPLGTQYTDAPSFSDIPNPIGSENSEKTTMPLW
  Km: 28.5 ± 3.5 µM
